According to patent publication US20130089566A1:

target: polypeptide B9-23 composed of the ninth to twenty-third amino acid residues of the amino terminal on B chain of human insulin (human)

Question: “spleen T cells of Balb/c mice of the B9-23 immune group (cells without a defined receptor)” was tested. Which T cell proliferation (CFSE staining, flow cytometry) did it give?
Answer: 8.94%

Question: Which T cell proliferation (CFSE staining, flow cytometry) does the source give for “spleen T cells of Balb/c mice of the pcDB9-23 and B9-23 coimmune group (cells without a defined receptor)” here?
Answer: 0.08%

Question: “spleen T cells of Balb/c mice of the pcDB9-23 immune group (cells without a defined receptor)” was tested. Which T cell proliferation (CFSE staining, flow cytometry) did it give?
Answer: 22.3%
